From patent US20080207488A1, “Method for Detecting Peptides Comprising a Cross-B Structure” (priority 2005, published 2008)

Legend:
[1] = molecular target: T1, tPA (Homo sapiens, UniProt P00750); test: Plasminogen-activation assay (tPA-mediated Plg to Pls, S-2251); assay type: biochemical; settings: 100 μg ml^−1 protein
T1 construct: purchased Boehringer-Ingelheim (Actilyse, Alteplase)
Experimental: Plasmin (Pls) activity was assayed as described^7. Peptides and proteins that were tested for their stimulatory ability were regularly used at 100 μg ml^−1. […] Chromogenic substrate S-2251 (Chromogenix, Instrumentation Laboratory SpA, Milano, Italy) was used to measure Pls activity. Conversion of zymogen factor XII (#233490, Calbiochem, EMD Biosciences, Inc., San Diego, Calif.) to proteolytically active factor XII (factor XIIa) was assayed by measurement of the conversion of chromogenic substrate Chromozym-PK (Roche Diagnostics, Almere, The Netherlands) by kallikrein. Chromozym-PK was used at a concentration of 0.3 mM. Factor XII, human plasma prekallikrein (#529583, Calbiochem) and human plasma cofactor high-molecular weight kininogen (#422686, Calbiochem) were used at concentrations of 1 μg ml^−1. […] Assays were performed using microtiter plates (Costar, Cambridge, Mass., USA). Peptides and proteins were tested for their ability to activate factor XII. […] The conversion of Chromozym-PK was recorded kinetically at 37° C. for at least 60 minutes. […] With S-2222, activation of factor XII in plasma was measured, using 60% v/v plasma, diluted with substrate and H2O with or without potential cofactor. Furthermore, auto-activation of factor XII was measured by incubating 53 μg ml^−1 purified factor XII in 50 mM Tris-HCl buffer pH 7.5 with 1 mM EDTA and 0.001% v/v Triton-X100, with S-2222 and H2O with or without potential cofactor.
Formulated protein therapeutics were obtained from the local hospital pharmacy and were used as supplied by the manufacturers. […] Enhancement in fluorescence of ThT and Congo red was measured with all formulated protein therapeutics. […]
To prepare structurally altered ovalbumin (OVA) with amyloid cross-β structure conformation, purified OVA (Sigma, A-7641, lot 071k7094) was heated to 85° C. […] Native OVA (nOVA) and heat-denatured OVA (dOVA) were tested in the ThT fluorescence assay and in the Plg-activation assay. In the fluorescence assay and in the Plg-activation assay, 25 and 100 μg ml^−1 nOVA and dOVA were tested, respectively. […]

[2] = ThT fluorescence of LPS-protein mixtures; assay type: physicochemical; settings: 1 mg ml^−1 protein exposed to 600 μg ml^−1 LPS (FIG. 4C)
Experimental: (§1) Fluorescence of ThT-protein/peptide adducts was measured as follows. […] Fluorescence was measured at 485 nm upon excitation at 435 nm. Background signals from buffer, buffer with ThT and protein/peptide solution without ThT were subtracted from corresponding measurements with protein solution incubated with ThT. […] Fluorescence was measured in triplicate on a Hitachi F-4500 fluorescence spectrophotometer (Ltd., Tokyo, Japan).
Subsequently, the ability to enhance ThT fluorescence was determined with 40× diluted solution, as described above. […]

[3] = ThT fluorescence of CpG-ODN-protein mixtures; assay type: physicochemical; settings: 1 mg ml^−1 protein exposed to 21.4 μg ml^−1 CPG-ODN (FIG. 4F)
Experimental: as §1
Enhancement of ThT fluorescence was measured similarly as described above. […]

[4] = molecular target: T1, tPA; test: ELISA, binding of β2GPI to immobilized tPA
Experimental: (§2) Binding of purified human factor XII from plasma (Calbiochem) or of purified recombinant human tPA to β2GPI purified from human plasma, or to recombinant human β2GPI was tested in an ELISA. Ten μg of factor XII or tPA in PBS was coated onto wells of a Costar 2595 ELISA plate (Cambridge, USA) and incubated with concentration series of the two β2GPI preparations. Binding of β2GPI was assessed with monoclonal antibody 2B2^13.

[5] = molecular target: T2, factor XII (Homo sapiens, UniProt P00748); test: ELISA, binding of β2GPI to immobilized factor XII
T2 construct: purchased Calbiochem, EMD Biosciences #233490
T2 sequence (P00748 20-615): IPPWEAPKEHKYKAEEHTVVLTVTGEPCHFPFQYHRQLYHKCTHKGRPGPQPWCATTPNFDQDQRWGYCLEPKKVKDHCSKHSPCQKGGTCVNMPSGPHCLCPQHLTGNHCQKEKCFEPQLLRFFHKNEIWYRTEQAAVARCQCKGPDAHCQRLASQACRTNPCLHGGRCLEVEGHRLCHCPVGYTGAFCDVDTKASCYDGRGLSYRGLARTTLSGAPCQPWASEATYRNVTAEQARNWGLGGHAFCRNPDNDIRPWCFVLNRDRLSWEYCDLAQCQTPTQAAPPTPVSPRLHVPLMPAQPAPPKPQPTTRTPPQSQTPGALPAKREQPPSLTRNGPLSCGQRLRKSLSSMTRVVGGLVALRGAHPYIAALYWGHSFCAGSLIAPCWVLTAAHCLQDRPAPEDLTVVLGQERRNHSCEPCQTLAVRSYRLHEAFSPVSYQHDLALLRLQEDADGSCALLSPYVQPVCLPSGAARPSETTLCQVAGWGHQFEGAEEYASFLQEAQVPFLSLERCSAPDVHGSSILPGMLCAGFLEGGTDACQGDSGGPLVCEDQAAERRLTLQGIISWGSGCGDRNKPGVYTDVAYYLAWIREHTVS
Experimental: as §2

[6] = test system: anti-β2GPI auto-antibodies; test: Interference with binding of anti-β2GPI autoantibodies to immobilized β2GPI; parameters: species or system human; settings: antibodies from Anti-phospholipid syndrome patients
Experimental: When plasma derived β2GPI is coated onto hydrophilic ELISA plates, anti-β2GPI auto-antibodies isolated from plasma of antiphospholipid syndrome auto-immune patients can bind^14. To study the influence of co-incubations of the coated β2GPI with the antibodies together with plasma β2GPI or recombinant β2GPI, concentration series of β2GPI were added to the patient antibodies. Subsequently, binding of the antibodies to coated β2GPI was determined.

[7] = ThT fluorescence of β2GPI with or without CL vesicles or DXS500k; assay type: physicochemical; settings: 25 μg ml^−1 β2GPI, 100 μM CL vesicles or 250 μg ml^−1 DXS
Experimental: ThT fluorescence of β2GPI was measured as follows. […] CL vesicles were prepared according to an established procedure. Briefly, CL was dried under a stream of nitrogen. The lipids were resuspended to a concentration of 10 mg ml^−1 in 25 mM Tris-HCl, pH 7.3, 150 mM NaCl by vigorous agitation, using a vortex. In the ThT fluorescence assay, fluorescence of β2GPI in buffer, of CL or DXS500k in buffer, of buffer and ThT alone, and of β2GPI-CL adducts and β2GPI-DXS500k adducts, with or without ThT, was recorded as described above (section ThT fluorescence). In addition, TEM images were recorded with CL, β2GPI from human plasma, with or without CL, and with recombinant β2GPI, as described^1.

T1 sequence (P00750 36-562): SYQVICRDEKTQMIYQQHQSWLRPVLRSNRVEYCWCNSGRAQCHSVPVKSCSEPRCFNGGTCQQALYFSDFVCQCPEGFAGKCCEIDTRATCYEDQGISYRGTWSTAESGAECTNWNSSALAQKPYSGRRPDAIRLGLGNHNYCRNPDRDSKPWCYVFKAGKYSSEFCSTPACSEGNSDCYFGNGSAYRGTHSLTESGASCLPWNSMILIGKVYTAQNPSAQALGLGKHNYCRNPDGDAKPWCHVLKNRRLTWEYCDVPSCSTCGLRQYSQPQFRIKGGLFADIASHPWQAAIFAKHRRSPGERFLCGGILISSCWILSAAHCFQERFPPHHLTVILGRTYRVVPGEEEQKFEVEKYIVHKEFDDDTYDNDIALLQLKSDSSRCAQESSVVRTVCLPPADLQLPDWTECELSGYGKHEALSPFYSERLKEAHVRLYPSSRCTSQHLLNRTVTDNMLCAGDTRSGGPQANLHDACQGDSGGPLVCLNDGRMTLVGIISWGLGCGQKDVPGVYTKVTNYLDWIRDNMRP

B1: plasma β2GPI: β2-glycoprotein I purified from fresh human plasma (protein)
chain: GRTCPKPDDLPFSTVVPLKTFYEPGEEITYSCKPGYVSRGGMRKFICPLTGLWPINTLKCTPRVCPFAGILENGAVRYTTFEYPNTISFSCNTGFYLNGADSAKCTEEGKWSPELPVCAPIICPPPSIPTFATLRVYKPSAGNNSLYRDTAVFECLPQHAMFGNDTITCTTHGNWTKLPECREVKCPFPSRPDNGFVNYPAKPTLYYKDKATFGCHDGYSLDGPEEIECTKLGNWSAMPSCKASCKVPVKKATVVYQGERVKIQEKFKNGMLHGDKVSFFCKNKEKKCSYTEDAQCIDGTIEVPKCFKEHSSLAFWKTDASDVKPC
[1]
  stimulation of tPA-mediated conversion of Plg to Pls: not
[2]
  ThT fluorescence enhancement: ~2 times
[3]
  increased ThT fluorescence: ~2 factor
[4]
  binding to tPA: not bind
[5]
  binding to factor XII: not bind
[6]
  inhibition of binding of anti-β2GPI auto-antibodies to immobilized β2GPI: minor effect on antibody binding
[7]
  ThT fluorescence after exposure to CL vesicles or DXS: increased fluorescence of ThT
